Columns and labels:
[1] = molecular target: T1, HOXA13 DNA-binding domain peptide (A13-DBD) (UniProt Q62424 320-386); assay: fluorescence anisotropy; abstract gives range 27-42 nM; FP: 1 nM fluorescein-labeled hairpin, 0-200 nM HOXA13-DBD, 15 C, buffer per ref 71 (not given); EMSA: Promega Gel Shift Binding System; details: protein: recombinant, label: fluorescein, CCCCCCC-region loop
[2] = molecular target: T1, HOXA13 DNA-binding domain peptide …; assay: fluorescence anisotropy; legend says affinity ablated; titrated only to 200 nM; FP: 1 nM fluorescein-labeled hairpin, 0-200 nM HOXA13-DBD, 15 C, buffer per ref 71 (not given); EMSA: Promega Gel Shift Binding System; details: protein: recombinant, label: fluorescein, 14 bp stem, CCCCC loop

T1 sequence (Q62424 320-386): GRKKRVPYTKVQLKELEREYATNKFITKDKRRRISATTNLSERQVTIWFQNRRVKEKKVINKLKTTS

B1: Foxf1 hairpin (structured_DNA)
DNA: CTTATTATTAAAGGCCCCCCCTTTAATAATAAG
B1 was tested, and the Kd [1] was 48 ± 4 nM.

B2: TGAC control hairpin (structured_DNA)
DNA: TGACTGACTGACTGCCCCCCAGTCAGTCAGTCA
In the case of B2, the Kd [2] is reported as 250 ± 22 nM.

Reference: article PMC2367452, “HOXA13 Is Essential for Placental Vascular Patterning and Labyrinth Endothelial Specification”
